Laboratory results taken from patent US20210030857A1 (NGM BIOPHARMACEUTICALS, published 2021).

T1: mouse beta klotho expressed on cells (mouse (Mus musculus), UniProt Q99N32 1-1043)
T1 construct: also called Mouse KLB
T1 sequence: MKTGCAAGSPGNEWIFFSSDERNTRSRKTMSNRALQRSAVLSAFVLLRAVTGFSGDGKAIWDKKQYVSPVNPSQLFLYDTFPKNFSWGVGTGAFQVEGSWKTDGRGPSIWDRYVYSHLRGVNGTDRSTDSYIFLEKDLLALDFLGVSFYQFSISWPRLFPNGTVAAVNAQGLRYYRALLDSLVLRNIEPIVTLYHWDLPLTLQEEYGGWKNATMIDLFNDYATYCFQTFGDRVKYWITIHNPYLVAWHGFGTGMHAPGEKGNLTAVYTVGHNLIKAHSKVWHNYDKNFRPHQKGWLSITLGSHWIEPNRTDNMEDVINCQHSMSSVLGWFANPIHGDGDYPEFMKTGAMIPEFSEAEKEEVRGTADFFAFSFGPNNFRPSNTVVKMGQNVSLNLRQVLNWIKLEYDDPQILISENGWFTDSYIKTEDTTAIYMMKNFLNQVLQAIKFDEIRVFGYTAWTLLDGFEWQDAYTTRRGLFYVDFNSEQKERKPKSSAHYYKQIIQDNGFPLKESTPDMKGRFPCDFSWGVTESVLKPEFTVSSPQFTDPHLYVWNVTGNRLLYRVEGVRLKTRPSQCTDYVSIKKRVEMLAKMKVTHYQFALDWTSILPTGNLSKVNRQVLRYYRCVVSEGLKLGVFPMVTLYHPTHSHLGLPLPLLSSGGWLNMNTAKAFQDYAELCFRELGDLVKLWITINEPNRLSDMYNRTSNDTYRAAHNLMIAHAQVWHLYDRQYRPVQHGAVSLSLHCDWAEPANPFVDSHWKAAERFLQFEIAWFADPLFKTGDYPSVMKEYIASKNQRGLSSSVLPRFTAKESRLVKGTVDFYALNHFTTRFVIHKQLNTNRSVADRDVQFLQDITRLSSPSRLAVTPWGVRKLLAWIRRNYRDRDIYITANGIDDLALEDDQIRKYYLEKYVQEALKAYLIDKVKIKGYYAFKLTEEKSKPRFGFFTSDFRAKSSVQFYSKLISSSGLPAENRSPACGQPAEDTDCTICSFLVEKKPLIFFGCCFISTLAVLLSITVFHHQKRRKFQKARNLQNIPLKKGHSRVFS

T2: cynomolgus beta klotho expressed on cells (cynomolgus monkey (Macaca fascicularis), UniProt Q86Z14 1-1044 (human entry))
T2 construct: also called Cynomolgus KLB
T2 chain: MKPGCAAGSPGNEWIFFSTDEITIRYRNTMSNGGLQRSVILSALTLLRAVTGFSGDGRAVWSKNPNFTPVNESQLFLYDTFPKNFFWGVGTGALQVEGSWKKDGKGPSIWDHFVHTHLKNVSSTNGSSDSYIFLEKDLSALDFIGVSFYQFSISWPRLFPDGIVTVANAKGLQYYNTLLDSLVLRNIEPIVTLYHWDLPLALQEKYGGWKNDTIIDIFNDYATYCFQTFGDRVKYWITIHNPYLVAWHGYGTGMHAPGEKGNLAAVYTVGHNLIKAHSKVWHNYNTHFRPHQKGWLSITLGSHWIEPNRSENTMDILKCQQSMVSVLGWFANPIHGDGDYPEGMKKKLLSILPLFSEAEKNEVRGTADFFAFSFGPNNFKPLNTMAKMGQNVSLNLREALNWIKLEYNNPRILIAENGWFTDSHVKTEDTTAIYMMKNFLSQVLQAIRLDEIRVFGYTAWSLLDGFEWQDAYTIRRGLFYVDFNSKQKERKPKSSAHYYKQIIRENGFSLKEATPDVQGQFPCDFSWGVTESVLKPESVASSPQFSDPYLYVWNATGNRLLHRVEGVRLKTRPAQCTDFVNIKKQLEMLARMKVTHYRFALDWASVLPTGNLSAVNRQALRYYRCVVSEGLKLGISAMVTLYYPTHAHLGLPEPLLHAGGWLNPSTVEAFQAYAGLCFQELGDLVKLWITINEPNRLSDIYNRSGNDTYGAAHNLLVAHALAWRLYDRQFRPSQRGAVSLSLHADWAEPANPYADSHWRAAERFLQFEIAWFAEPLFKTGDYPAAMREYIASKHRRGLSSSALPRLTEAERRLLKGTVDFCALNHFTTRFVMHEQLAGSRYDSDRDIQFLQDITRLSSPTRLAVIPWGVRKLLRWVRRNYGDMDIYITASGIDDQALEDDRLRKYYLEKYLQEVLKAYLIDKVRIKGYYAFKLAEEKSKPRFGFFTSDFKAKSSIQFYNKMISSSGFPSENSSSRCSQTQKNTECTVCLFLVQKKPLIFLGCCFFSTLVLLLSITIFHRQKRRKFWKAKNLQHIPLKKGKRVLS

B1: humanized 5H23 antibody (VH SEQ ID NO: 271 and VL SEQ ID NO: 276) (antibody, V domains shown)
VH: QVQLQQSGAEVKKPGASVKVSCKASGYTFTSYDINWVRQAPGQGLEWIGWIYPGDGSTKYNEKFKGKATITRDTSASTAYMELSSLRSEDTAVYFCARSDYYGSRSFAYWGQGTLVTVSS
VL: DIVMTQSPDSLAVSLGERATINCRASKSVSTSGYVYMHWYQQKPGQPPKLLIYLASYLESGVPDRFSGSGSGTDFTLTISSVQAEDVAVYYCQHSRDLTFPFGGGTKLEIK
notes: also called h5H23; h5H23 (Prep 1)
B2: negative control antibody, anti-keyhole limpet hemocyanin (KLH) antibody (antibody, human IgG1, kappa, V domains shown)
VH: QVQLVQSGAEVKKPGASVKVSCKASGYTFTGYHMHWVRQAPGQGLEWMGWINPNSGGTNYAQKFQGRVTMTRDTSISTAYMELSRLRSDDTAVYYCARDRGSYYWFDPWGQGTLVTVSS
VL: DIQMTQSPSSLSASVGDRVTITCRASQGIRNDLGWYQQKPGKAPKRLIYAASSLQSGVPSRFSGSGSGTEFTLTISSLQPEDFATYYCLQHNSYPLTFGGGTKVEIKR
notes: also called Neg; Control; anti-KLH antibody

Experiments:
[1] = target: T1, mouse beta klotho expressed on cells; assay: FACS on transfected Expi293 cells
Experimental: (§1) Studies were performed in order to localize the binding site on human KLB of anti-beta klotho antibodies in the 5H23 epitope bin, including 5H23 as described in Example 3, with sequences shown in Tables 1-10 and FIGS. 1-3, and human anti-beta klotho antibodies in the 5H23 epitope bin, such as humanized 5H23 antibodies (e.g., VH SEQ ID NO: 271 and VL SEQ ID NO: 276). For example, FACS-based binding assays for domain mapping were performed on Expi293 cells (Life Technologies, A14635) that were transiently transfected with plasmids encoding variants of KLB: human, mouse, cynomolgus, a chimeric version in which the KL1 domain sequence of mouse KLB (M1-F506) replaces the KL1 domain of human KLB (M1-F508) to create mouse-human KLB (SEQ ID NO: 376), and a second chimera in which the human KL1 sequence (M1-F508) replaces the KL1 domain of mouse KLB (M1-F506) to create human-mouse KLB (SEQ ID NO: 374). Additionally, the expression vector pYD7 harboring no KLB sequence was transfected as a negative control.
(§2) In some studies, binding of a purified sample of a humanized 5H23 antibody (e.g., VH SEQ ID NO: 271 and VL SEQ ID NO: 276) to KLB variants was determined by FACS analysis. […] After washing with PBS/1% BSA/0.1% azide, transfected cells were then co-incubated with labeled anti-human Fc (Jackson lmmunoresearch) for 30 minutes at 4° C. After washing with PBS/1% BSA/0.1% azide, cells were acquired on flow cytometer (FACS Calibur) and analyzed by cytometric software (FlowJo). To display the resulting data, graphs plotting the number of cells as a function of fluorescence intensity were generated, and the median fluorescence intensity (MFI) was determined for each sample as shown in Table 30.

[2] = target: T2, cynomolgus beta klotho expressed on …; assay: FACS on transfected Expi293 cells
Experimental: as §1, §2

Binder | binding result [1] | binding result [2]
B1 | no binding (tested: 1 µg/ml) | 
B2 |  | no binding (tested: 1 µg/ml)
